{
  "source": "paper PMC7617963",
  "about": "(Current biology : CB, 2024)",
  "molecular_target": "the molecule itself",
  "experiment": "cross-linking; BS3 cross-linker mixed 1:1 (w/w) with protein at 1 mg/ml, 30 minutes at room temperature, quenched with 200 mM ammonium bicarbonate, resolved by SDS-PAGE",
  "data": [
    {"protein": "CENP-E_(2452-2598) (domain or fragment, human, UniProt Q02224-1 2452-2598, looked up, CENP-E (centromere-associated protein E), residues 2452-2598; cell constructs were generated from CENP-E transcript variant 1 (NM_001813.2); cloned into pET3aTr for expression; The purification says that the His tag was cleaved with 3C protease, yet the crystallisation and cross-linking methods call the protein His6-CENP-E_(2452-2598); also called His6-CENP-E_(2452-2598); minimal corona-targeting …) PYKEEIEDLKMKLVKIDLEKMKNAKEFEKEISATKATVEYQKEVIRLLRENLRRSQQAQDTSVISEHTDPQPSNKPLTCGGGSGIVQNTKALILKSEHIRLEKEISKLKQQNEQLIKQKNELLSNNQHLSNEVKTWKERTLKREAHK", "values": [
      {"measurement": "stoichiometry N", "result": 2}
    ]}
  ]
}
